Data from article PMC10022642, “Abscisic acid promotes auxin biosynthesis to inhibit primary root elongation in rice”.
Residue numbers refer to the chain shown, from its start.

B1: YUC8-Probe (YUC8/REIN7 promoter, P3 G-box) (dsDNA)
DNA 1: GTTGGAAAGCGTATTTTATTCGCAACGTGCGGTTCTTCCAGTTTCTCGGC
DNA 2: GCCGAGAAACTGGAAGAACCGCACGTTGCGAATAAAATACGCTTTCCAAC
B2: YUC8-Mutant Probe (dsDNA)
DNA 1: B1 DNA 1 with C26A, G27A, T28A, G29A
DNA 2: B1 DNA 2 with C22T, A23T, C24T, G25T

How the values were obtained:
GST-OsbZIP46 [1] = molecular target: T1, GST-OsbZIP46 (Oryza sativa, UniProt Q69TW5 1-324); experiment: EMSA; LightShift Chemiluminescent EMSA kit, 20 min at room temperature, 5% native polyacrylamide gel; buffer, salt and pH not stated; details: protein: recombinant; tags: GST (N-terminal, pGEX-6p-1); chain copies: 2
T1 sequence: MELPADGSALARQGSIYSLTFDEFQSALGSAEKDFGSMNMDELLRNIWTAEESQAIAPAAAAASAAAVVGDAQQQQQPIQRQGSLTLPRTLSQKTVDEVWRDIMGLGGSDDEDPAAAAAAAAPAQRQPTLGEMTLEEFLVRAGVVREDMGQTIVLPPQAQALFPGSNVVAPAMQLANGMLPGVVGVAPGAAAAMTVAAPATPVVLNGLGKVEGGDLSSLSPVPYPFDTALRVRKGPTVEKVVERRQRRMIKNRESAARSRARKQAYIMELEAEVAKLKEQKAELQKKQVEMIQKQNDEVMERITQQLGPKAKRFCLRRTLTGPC

GST-OsbZIP46 [2] = molecular target: T1, GST-OsbZIP46; experiment: EMSA; labeled mutant probe; LightShift Chemiluminescent EMSA kit, 20 min at room temperature, 5% native polyacrylamide gel; buffer, salt and pH not stated; details: protein: recombinant; tags: GST (N-terminal, pGEX-6p-1); chain copies: 2; label: 3' biotin

| Binder | binding result (GST-OsbZIP46 [1]) | binding result (GST-OsbZIP46 [2]) |
| --- | --- | --- |
| B1 | binds | – |
| B2 | – | no binding |
